Measurements: the supplement of paper PMC7877785
± gives the uncertainty stated by the source.

Test: self-splicing fitness, log relative to wild type (ln ratio); higher = more splicing; Tetrahymena group I intron in knt gene, E. coli kanamycin selection, DiMSum; sequences stand for … in CUCUCU…GGAGGGAAAAGUUAUCAGGCAUGCACCUGGUAGCUAGUCUUUAAACCAAUAGAUUGCAUCGGUUUAAAAGGCAAGACCGUCAAAUUGCGGGAAAGGGGUCAACAGCCGUUCAGUACCAAGUCUCAGGGGAAACUUUGAGAUGGCCUUGCAAAGGGUAUGGUAAUAAGCUGACGGACAUGGUCCUAACCACGCAGCCAAGUCCUAAGUCAACAGAUCUUCUGUUGAUAUGGAUGCAGUUCACAGACUAAAUGUCGGUCGGGGAAGAUGUAUUCUUCUCAUAAGAUAUAGUCGGACCUCUCCUUAAUGGGAGCUAGCGGAUGAAGUGAUGCAACACUGGAGCCGCUGGGAACUAAUUUGUAUGCGAAAGUAUAUUGAUUAGUUUUGGAGUACUCGUGGUCG
How it was run: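 Colonies from six replicate transformations of E. coli BL21(DE3) were pooled and amplicon-sequenced on an Illumina HiSeq 2500. The library placed an intron with all eight P1ex-region nucleotides randomised inside the knt kanamycin-resistance gene on pET-22b(+), and cells grew overnight at 37°C or 30°C on LB agar with or without 25 μg/mL kanamycin (plus 100 μg/mL carbenicillin, 50 μM IPTG, 0.2% rhamnose). Fitness is the DiMSum error-weighted combination of wild-type-normalised replicate fold changes, kanamycin versus none.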

Sequence | self-splicing fitness (ln) (30 °C) | self-splicing fitness (ln) (37 °C)
CUACAGCAAUAUUACGGGAA | -2.88 ± 0.24 | -2.28 ± 0.23
CUACAGCAAUAUUACGGGGC | -2.95 ± 0.2 | -2.57 ± 0.22
CUACAGCAAUAUUACGGUCC | -2.72 ± 0.18 | -2.15 ± 0.24
CUACAGCAAUAUUACGGUCG | -0.256 ± 0.068 | 0.417 ± 0.082
CUACAGCAAUAUUACGUAGA | -4.4 ± 0.21 | -2.56 ± 0.14
CUACAGCAAUAUUACGUAGG | -1.39 ± 0.059 | -1.14 ± 0.093
CUACAGCAAUAUUACGUCCG | -0.955 ± 0.095 | 0.368 ± 0.12
CUACAGCAAUAUUACGUUGA | -3.13 ± 0.17 | -3.35 ± 0.21
CUAGAGCAAUAUUACGACAG | 0.262 ± 0.087 | 0.734 ± 0.12
CUAGAGCAAUAUUACGAGCA | – | -3.27 ± 0.31
CUAGAGCAAUAUUACGAGGA | -2.99 ± 0.2 | -2.53 ± 0.28
CUAGAGCAAUAUUACGAUCG | 0.45 ± 0.066 | 0.245 ± 0.088
CUAGAGCAAUAUUACGAUCU | -4.31 ± 0.34 | -2.29 ± 0.34
CUAGAGCAAUAUUACGAUGG | -0.193 ± 0.11 | 0.418 ± 0.14
CUAGAGCAAUAUUACGCAAA | -2.62 ± 0.27 | -1.27 ± 0.4
CUAGAGCAAUAUUACGCAGU | -2.58 ± 0.12 | -3.17 ± 0.2
CUAGAGCAAUAUUACGCAUU | -3.2 ± 0.18 | -2.2 ± 0.25
CUAGAGCAAUAUUACGCCAU | -3.39 ± 0.19 | -3.11 ± 0.29
CUAGAGCAAUAUUACGCCGC | -2.52 ± 0.37 | –
CUAGAGCAAUAUUACGCGAU | -0.892 ± 0.084 | -0.253 ± 0.11

Sequence | self-splicing fitness (ln) (30 °C) | self-splicing fitness (ln) (37 °C)
CUAGAGCAAUAUUACGCUAC | -2.83 ± 0.27 | –
CUAGAGCAAUAUUACGCUAU | – | -2.47 ± 0.48
CUAGAGCAAUAUUACGGAAG | -0.402 ± 0.07 | -0.264 ± 0.1
CUAGAGCAAUAUUACGGAGA | -2.51 ± 0.26 | -2.51 ± 0.48
CUAGAGCAAUAUUACGGCAG | 0.0667 ± 0.08 | 0.49 ± 0.11
CUAGAGCAAUAUUACGGGGA | -2.35 ± 0.22 | -3.06 ± 0.47
CUAGAGCAAUAUUACGGGGG | -2.64 ± 0.24 | -1.11 ± 0.27
CUAGAGCAAUAUUACGGUAC | -3.01 ± 0.33 | –
CUAGAGCAAUAUUACGUAAC | -4.96 ± 0.38 | -2.32 ± 0.19
CUAGAGCAAUAUUACGUGUA | -4.57 ± 0.46 | -2.41 ± 0.23
CUAGAGCAAUAUUACGUGUU | -3.3 ± 0.26 | -2.8 ± 0.3
CUAUAGCAAUAUUACGAAAA | – | -2.17 ± 0.29
CUAUAGCAAUAUUACGAACG | 0.0017 ± 0.29 | -0.388 ± 0.33
CUAUAGCAAUAUUACGAAGG | -1.76 ± 0.13 | -1.72 ± 0.19
CUAUAGCAAUAUUACGACCA | -3.1 ± 0.29 | -2.44 ± 0.35
CUAUAGCAAUAUUACGAGGG | -3.08 ± 0.21 | -2.41 ± 0.27
CUAUAGCAAUAUUACGAUAU | -2.53 ± 0.21 | -2.45 ± 0.45
CUAUAGCAAUAUUACGCAGA | -2.65 ± 0.16 | -1.2 ± 0.14
CUAUAGCAAUAUUACGCGCA | -2.97 ± 0.46 | -1.65 ± 0.47
CUAUAGCAAUAUUACGCGGC | -1.25 ± 0.26 | 0.45 ± 0.25
